Tests used:
[1] = molecular target: cyclin A-cdk2 (baculovirally coexpressed cyclin A and cdk2-HA)
[2] = molecular target: cyclin E-cdk2 (baculovirally coexpressed cyclin E and cdk2-HA)

half-maximal inhibition of histone H1 kinase activity [1]: 0.5 nM | half-maximal inhibition of histone H1 kinase activity [2]: 0.5 nM
Substance: flag-p57 (mouse p57^KIP2 tagged at the N-terminus with the flag epitope)

Source: patent US6025480
